# B1: putrescine transaminase from Pseudomonas putida (Pp-SpuC) (enzyme)
# chain: MSTNNPQTREWQTLSGEHHLAPFSDYKQLKEKGPRIITKAQGVHLWDSEGHKILDGMAGLWCVAVGYGREELVQAAEKQMRELPYYNLFFQTAHPPALELAKAITDVAPEGMTHVFFTGSGSEGNDTVLRMVRHYWALKGKPHKQTIIGRINGYHGSTFAGACLGGMSGMHEQGGLPIPGIVHIPQPYWFGEGGDMTPDAFGIWAAEQLEKKILEVGEDNVAAFIAEPIQGAGGVIIPPETYWPKVKEILAKYDILFVADEVICGFGRTGEWFGSDYYDLKPDLMTIAKGLTSGYIPMGGVIVRDKVAKVISEGGDFNHGFTYSGHPVAAAVGLENLRILRDEQIVEKARTEAAPYLQKRLRELQDHPLVGEVRGLGMLGAIELVKDKATRSRYEGKGVGMICRTFCFENGLIMRAVGDTMIIAPPLVISHAEIDELVEKARKCLDLTLEAIR
# notes: putrescine transaminase SpuC of Pseudomonas putida (strain NBRC 14161 bought from NCIMB), cloned in pET-28b as in Galman et al., 2017; in the crystal residues 1-33, 154-179 and 313-324 are disordered; No cleavage of the tag is told; Crystallised in the apo form (no PLP seen); also called putrescine transaminase spuC; source: E. coli BL21 (DE3), pET28b, purified (Ni-NTA, ion exchange on …)
# Biological target: the molecule itself
# Assay: crystal structure; apo Pp-SpuC; crystals in 0.2 M MgCl2, 0.1 M Bis-Tris pH 6.5, 25% PEG3350, 20°C; two monomers in the asymmetric unit
protein,measurement,value
B1,stoichiometry N,2

# Reference: paper PMC6308316, “Characterization of a Putrescine Transaminase From Pseudomonas putida and its Application to the Synthesis of Benzylamine Derivatives” (Frontiers in Bioengineering and Biotechnology, 2018)
